From patent US20120328589A1 come the findings set out here.

The target of the assay is mannose receptor (on NR8383 rat alveolar macrophages) (rat). Kind of assay: cell-based or functional assay.

On to “prh-GCD cross-linked with bis-NHS-PEG5 at a 50:1 bis-NHS-PEG5:GCD molar ratio (from UniProt P04062 40-536) (enzyme)”, for which the uptake by rat alveolar macrophages in the absence of mannan (GCD activity in cell lysate, pNP-G assay) is 200 ng/mL lysate and the uptake by rat alveolar macrophages, reduction by mannan (GCD activity in cell lysate, pNP-G assay) stood at 85%.

Take “Plant recombinant human glucocerebrosidase (prh-GCD) (from UniProt P04062 40-536) (enzyme)”: the uptake by rat alveolar macrophages in the absence of mannan (GCD activity in cell lysate, pNP-G assay) amounted to 333 ng/mL lysate and the uptake by rat alveolar macrophages, reduction by mannan (GCD activity in cell lysate, pNP-G assay) is 90%.
